The values below come from patent US20200308559A1, “Composition for detecting protein-protein interactions comprising fragments of secreted alkaline phosphatase (SEAP) and method for detecting protein-protein interactions using the same” (priority 2019, published 2020).

The target in the experiment is T1, interaction (binding) between FKBP12 and FRB (Homo sapiens, UniProt P42345+P62942).
T1 construct: FLAG-FRB expression vector; expressed in transfected cells; host or cells: HEK-293T (ATCC CRL-11268)
T1 sequence (P62942 whole entry): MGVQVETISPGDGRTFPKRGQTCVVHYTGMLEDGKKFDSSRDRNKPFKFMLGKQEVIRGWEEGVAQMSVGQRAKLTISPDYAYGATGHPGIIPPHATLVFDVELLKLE
T1 sequence (P42345 2012-2144): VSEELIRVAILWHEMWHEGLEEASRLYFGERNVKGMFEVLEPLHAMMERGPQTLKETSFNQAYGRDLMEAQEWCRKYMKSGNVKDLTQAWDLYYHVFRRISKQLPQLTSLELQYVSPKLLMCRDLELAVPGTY
Kind of experiment: Split SEAP fragment complementation: SEAP activity in culture supernatant (pNpp, absorbance 405 nm) after rapamycin-induced FKBP12-FRB binding. The note with it: HEK-293T cells, same manner as Example 2; for SEAP activity of the pair pSNA379 with pSCA373 or pSCB373 (FIG. 6): N-terminal fragment cleaved at 379, C-terminal fragment cleaved at 372; for SEAP activity of the pair pSNA387 with pSCA380 (FIG. 6): N-terminal fragment cleaved at 387, C-terminal fragment cleaved at 379; for SEAP activity of the pair pSNA404 with pSCA388 or pSCB388 (FIG. 6): N-terminal fragment cleaved at 404, C-terminal fragment cleaved at 387; for SEAP activity of the pair pSNA418 with pSCA405 or pSCB405 (FIG. 6): N-terminal fragment cleaved at 418, C-terminal fragment cleaved at 404. It counts as cell-based. How it is done: HEK-293T (Human embryonic kidney cell, ATCC: CRL-11268) cells were cultured in DMEM (Dulbecco's modified Eagle's media, Gibco, Seoul, South Korea) treated with a 10% (v/v) FBS (HyClone) and 1% (v/v) penicillin/streptomycin solution (HyClone) and cultured at 37° C. in a humidified atmosphere containing 5% CO2.
HEK-293T cells were seeded at 2×10^4 cells per well in a 48-well plate and cultured until 24 hours before transformation.
For the transformation, 0.15 μL of PEI (PEI, <20,000 MW, Cat. No. 23966, Polysciences, Inc., Warrington, Pa., USA; stock solution: 4 mg/mL in ddH20, pH 7.2) was mixed with 0.2 pLg of DNA, and the mixture was vortexed for 5 seconds and then incubated for 20 minutes at 25° C. to prepare 40 μL of DNA-PEI mixture per well. At this time, the DNA was prepared by mixing a vector (pSNA series) containing a SEAP N-terminal fragment and a vector (pSCA or pSCB series) containing a SEAP C-terminal fragment.
After 24 hours of the transformation, the culture medium was replaced with DMEM with 100 nM rapamycin or DMEM without rapamycin.
SEAP activity was measured after 24 hours. The SEAP activity was measured in a time course using a p-nitrophenylphosphate (pNpp)-based absorbance (405 nm) measuring method. 80 μL of a culture medium supernatant, 100 μL of a 2× SEAP buffer solution (21% diethanolamine, 20 mM L-homoarginine, and 1 mM MgCl2, pH 9.8), and 20 μL of 120 mM pNpp were mixed and reacted with one another, and then absorbance at 405 nm was measured.

For the molecule “pSNA379: HA-FKBP-snSEAP fusion: SEAP N-terminal fragment (1-379) fused to C-terminal of FKBP12, expression vector”, the “SEAP activity of the pair pSNA379 with pSCA373 or pSCB373 (FIG. 6)” value (“SEAP activity of the pair pSNA379” for short) is “excellent SEAP activity”.
For “pSNA387: HA-FKBP-snSEAP fusion: SEAP N-terminal fragment (1-387), expression vector”, the “SEAP activity of the pair pSNA387 with pSCA380 (FIG. 6)” value is recorded as “excellent SEAP activity”.
Consider “pSNA404: HA-FKBP-snSEAP fusion: SEAP N-terminal fragment (1-404), expression vector”, for which the “SEAP activity of the pair pSNA404 with pSCA388 or pSCB388 (FIG. 6)” value (“SEAP activity of the pair pSNA404” below) was “excellent SEAP activity”.
“pSNA418: HA-FKBP-snSEAP fusion: SEAP N-terminal fragment (1-418), expression vector”: the “SEAP activity of the pair pSNA418 with pSCA405 or pSCB405 (FIG. 6)” value (shortened to “SEAP activity of the pair pSNA418”) was “excellent SEAP activity”.

B1: pSCB388: scSEAP-FRB-FLAG fusion: SEAP C-terminal fragment (388-502), cleaved at position 387, expression vector (protein)
chain: YTVLLYGNGPGYVLKDGARPDVTESESGSPEYRQQSAVPLDEETHAGEDVAVFARGPQAHLVHGVQEQTFIAHVMAFAACLEPYTACDLAPPAGTTDAAHPGYSRVGAAGRFEQTKGSGSTSGSGILWHEMWHEGLEEASRLYFGERNVKGMFEVLEPLHAMMERGPQTLKETSFNQAYGRDLMEAQEWCRKYMKSGNVKDLTQAWDLYYHVFRRISK
modifications: left off: small tags and cut ends
notes: scSEAP-FRB-FLAG fusion: SEAP C-terminal fragment (388-502), cleaved at position 387, expression vector
Take B1: the “SEAP activity of the pair pSNA404” value was “excellent SEAP activity”.

B2: pSCA380: FLAG-FRB-scSEAP fusion: SEAP C-terminal fragment (380-502), cleaved at position 379, expression vector (protein)
chain: ILWHEMWHEGLEEASRLYFGERNVKGMFEVLEPLHAMMERGPQTLKETSFNQAYGRDLMEAQEWCRKYMKSGNVKDLTQAWDLYYHVFRRISKKGSGSTSGSGGKARDRKAYTVLLYGNGPGYVLKDGARPDVTESESGSPEYRQQSAVPLDEETHAGEDVAVFARGPQAHLVHGVQEQTFIAHVMAFAACLEPYTACDLAPPAGTTDAAHPGYSRVGAAGRFEQT
modifications: left off: small tags and cut ends
notes: FLAG-FRB-scSEAP fusion: SEAP C-terminal fragment (380-502), cleaved at position 379, expression vector
In the case of B2, the “SEAP activity of the pair pSNA387 with pSCA380 (FIG. 6)” value is “excellent SEAP activity”.

B3: pSCA388: FLAG-FRB-scSEAP fusion: SEAP C-terminal fragment (388-502), cleaved at position 387, expression vector (protein)
chain: ILWHEMWHEGLEEASRLYFGERNVKGMFEVLEPLHAMMERGPQTLKETSFNQAYGRDLMEAQEWCRKYMKSGNVKDLTQAWDLYYHVFRRISKKGSGSTSGSGYTVLLYGNGPGYVLKDGARPDVTESESGSPEYRQQSAVPLDEETHAGEDVAVFARGPQAHLVHGVQEQTFIAHVMAFAACLEPYTACDLAPPAGTTDAAHPGYSRVGAAGRFEQT
modifications: left off: small tags and cut ends
notes: FLAG-FRB-scSEAP fusion: SEAP C-terminal fragment (388-502), cleaved at position 387, expression vector
Turning to B3, the “SEAP activity of the pair pSNA404” value is given as “excellent SEAP activity”.

B4: pSCB405: scSEAP-FRB-FLAG fusion: SEAP C-terminal fragment (405-502), cleaved at position 404, expression vector (protein)
chain: ARPDVTESESGSPEYRQQSAVPLDEETHAGEDVAVFARGPQAHLVHGVQEQTFIAHVMAFAACLEPYTACDLAPPAGTTDAAHPGYSRVGAAGRFEQTKGSGSTSGSGILWHEMWHEGLEEASRLYFGERNVKGMFEVLEPLHAMMERGPQTLKETSFNQAYGRDLMEAQEWCRKYMKSGNVKDLTQAWDLYYHVFRRISK
modifications: left off: small tags and cut ends
notes: scSEAP-FRB-FLAG fusion: SEAP C-terminal fragment (405-502), cleaved at position 404, expression vector
As for B4, the “SEAP activity of the pair pSNA418” value is “excellent SEAP activity”.

B5: pSCA405: FLAG-FRB-scSEAP fusion: SEAP C-terminal fragment (405-502), cleaved at position 404, expression vector (protein)
chain: ILWHEMWHEGLEEASRLYFGERNVKGMFEVLEPLHAMMERGPQTLKETSFNQAYGRDLMEAQEWCRKYMKSGNVKDLTQAWDLYYHVFRRISKKGSGSTSGSGARPDVTESESGSPEYRQQSAVPLDEETHAGEDVAVFARGPQAHLVHGVQEQTFIAHVMAFAACLEPYTACDLAPPAGTTDAAHPGYSRVGAAGRFEQT
modifications: left off: small tags and cut ends
notes: FLAG-FRB-scSEAP fusion: SEAP C-terminal fragment (405-502), cleaved at position 404, expression vector
Regarding B5, the “SEAP activity of the pair pSNA418” value is “excellent SEAP activity”.

B6: pSCA373: FLAG-FRB-scSEAP fusion: SEAP C-terminal fragment (373-502), cleaved at position 372, expression vector (protein)
chain: ILWHEMWHEGLEEASRLYFGERNVKGMFEVLEPLHAMMERGPQTLKETSFNQAYGRDLMEAQEWCRKYMKSGNVKDLTQAWDLYYHVFRRISKKGSGSTSGSGSIFGLAPGKARDRKAYTVLLYGNGPGYVLKDGARPDVTESESGSPEYRQQSAVPLDEETHAGEDVAVFARGPQAHLVHGVQEQTFIAHVMAFAACLEPYTACDLAPPAGTTDAAHPGYSRVGAAGRFEQT
modifications: left off: small tags and cut ends
notes: FLAG-FRB-scSEAP fusion: SEAP C-terminal fragment (373-502), cleaved at position 372, expression vector
On to B6, for which the “SEAP activity of the pair pSNA379” value is “excellent SEAP activity”.

B7: pSCB373: scSEAP-FRB-FLAG fusion: SEAP C-terminal fragment (373-502), cleaved at position 372, expression vector (protein)
chain: SIFGLAPGKARDRKAYTVLLYGNGPGYVLKDGARPDVTESESGSPEYRQQSAVPLDEETHAGEDVAVFARGPQAHLVHGVQEQTFIAHVMAFAACLEPYTACDLAPPAGTTDAAHPGYSRVGAAGRFEQTKGSGSTSGSGILWHEMWHEGLEEASRLYFGERNVKGMFEVLEPLHAMMERGPQTLKETSFNQAYGRDLMEAQEWCRKYMKSGNVKDLTQAWDLYYHVFRRISK
modifications: left off: small tags and cut ends
notes: scSEAP-FRB-FLAG fusion: SEAP C-terminal fragment (373-502), cleaved at position 372, expression vector
With B7, the “SEAP activity of the pair pSNA379” value is “excellent SEAP activity”.
